Substitutions are numbered along the chain they refer to. Each block holds one binder with its values, some of them ahead of it.
Columns and labels:
[1] = biological target: T1, human LAG-3 ECD human IgG1 Fc fusion (human, UniProt P18627 23-450); assay: SPR, Fab over captured LAG-3 ECD-Fc
T1 construct: not shown: human IgG1 Fc, AA P101-K330
T1 sequence: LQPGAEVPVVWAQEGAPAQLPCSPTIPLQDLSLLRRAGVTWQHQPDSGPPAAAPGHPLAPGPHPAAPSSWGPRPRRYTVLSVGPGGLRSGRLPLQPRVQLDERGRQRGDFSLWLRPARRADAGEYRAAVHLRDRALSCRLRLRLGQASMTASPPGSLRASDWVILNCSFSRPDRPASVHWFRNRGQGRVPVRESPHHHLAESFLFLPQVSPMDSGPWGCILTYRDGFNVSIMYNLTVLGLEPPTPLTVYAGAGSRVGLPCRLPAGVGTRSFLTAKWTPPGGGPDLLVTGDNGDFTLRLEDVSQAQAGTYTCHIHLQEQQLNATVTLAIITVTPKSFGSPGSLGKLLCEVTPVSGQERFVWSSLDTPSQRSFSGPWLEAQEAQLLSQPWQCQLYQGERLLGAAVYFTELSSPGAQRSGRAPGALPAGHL

[2] = biological target: T2, human LAG-3 domain 1-2 Fc fusion, chimeric construct #26 (mutated region AA 157-161) (human, UniProt P18627 23-266); assay: SPR, Fab over captured mutant LAG-3-Fc;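 note: LAG-3 fusion proteins captured on an anti-human IgG Fc sensor chip and read on an IBIS MX96 biosensor, Fab association and dissociation each 15 min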
T2 construct: not shown: human IgG1 Fc, AA P101-K330
T2 chain: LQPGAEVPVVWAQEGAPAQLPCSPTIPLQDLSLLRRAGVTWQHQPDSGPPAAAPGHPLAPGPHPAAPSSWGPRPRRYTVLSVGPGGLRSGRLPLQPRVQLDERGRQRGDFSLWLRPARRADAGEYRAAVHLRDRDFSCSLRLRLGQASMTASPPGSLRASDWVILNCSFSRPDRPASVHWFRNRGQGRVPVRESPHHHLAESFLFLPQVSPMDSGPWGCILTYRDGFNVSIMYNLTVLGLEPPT

[3] = biological target: T3, human LAG-3 domain 1-2 Fc fusion, chimeric construct #10 (mutated region AA 70-77) (human, UniProt P18627 23-266); assay: SPR, Fab over captured mutant LAG-3-Fc;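 note: LAG-3 fusion proteins captured on an anti-human IgG Fc sensor chip and read on an IBIS MX96 biosensor, Fab association and dissociation each 15 min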
T3 construct: 'Q71Q' copied as printed; construct #9 prints P71Q for the same position
T3 chain: T2 chain with G48D, P49Q, A52S, A53I, G55A, D135A, F136L, S139R
Procedure: The LAG-3 fusion proteins were immobilized onto a G-a-hu-IgG Fc SensEye® (Ssens BV, The Netherlands) for 15 minutes using a Continuous Flow Microspotter (CFM, Wasatch Microfluidics, Salt Lake City, US). After spotting, the SensEye® was positioned in an IBIS MX96 biosensor and captured proteins were evaluated for binding affinity. […] Fab association was performed for 15 minutes and antigen dissociation was performed for 15 minutes. The recorded binding responses were fitted to a simple Langmuir 1:1 binding model with Scrubber 2 software for calculation of the on-rate (kon or ka), off-rate (koff or kd) and affinity (KD) constants.

[4] = biological target: T4, human LAG-3 domain 1-2 Fc fusion, chimeric construct #16 (mutated region AA 98-105) (human, UniProt P18627 23-266); assay: SPR, Fab over captured mutant LAG-3-Fc;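 note: LAG-3 fusion proteins captured on an anti-human IgG Fc sensor chip and read on an IBIS MX96 biosensor, Fab association and dissociation each 15 min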
T4 construct: not shown: human IgG1 Fc, AA P101-K330
T4 chain: T2 chain with R76S, T78V, S81M, V82R, G83A, D135A, F136L, S139R

[5] = biological target: T5, human LAG-3 domain 1-2 Fc fusion, chimeric construct #4 (mutated region AA 40-47) (human, UniProt P18627 23-266); assay: SPR, Fab over captured mutant LAG-3-Fc;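 note: LAG-3 fusion proteins captured on an anti-human IgG Fc sensor chip and read on an IBIS MX96 biosensor, Fab association and dissociation each 15 min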
T5 construct: not shown: human IgG1 Fc, AA P101-K330
T5 chain: T2 chain with A18V, Q19H, P24L, T25E, D135A, F136L, S139R

[6] = biological target: T6, human LAG-3 domain 1-2 Fc fusion, chimeric construct #8 (mutated region AA 59-66) (human, UniProt P18627 23-266); assay: SPR, Fab over captured mutant LAG-3-Fc
T6 construct: not shown: human IgG1 Fc, AA P101-K330
T6 chain: T2 chain with A37G, G38W, Q44R, D135A, F136L, S139R

[7] = biological target: T7, human LAG-3 domain 1-2 Fc fusion, chimeric construct #15 (mutated region AA 95-100) (human, UniProt P18627 23-266); assay: SPR, Fab over captured mutant LAG-3-Fc
T7 construct: not shown: human IgG1 Fc, AA P101-K330
T7 chain: T2 chain with R73G, R76S, T78V, D135A, F136L, S139R

[8] = biological target: T8, human LAG-3 domain 1-2 Fc fusion, chimeric construct #24 (mutated region AA 148-154) (human, UniProt P18627 23-266); assay: SPR, Fab over captured mutant LAG-3-Fc
T8 construct: not shown: human IgG1 Fc, AA P101-K330
T8 chain: T2 chain with R126H, A128F, H130R, R132P, D135A, F136L, S139R

B2: Fab fragment of antibody 15431 (Fab, V domains shown, not shown: a dimerising Fc or GST)
VH: QVQLQQSGPGLVKPSQTLSLTCAISGDSVSSNSAAWNWIRQSPSRGLEWLGRTYYRSKWYNDYAVSVKSRITINPDTSKNQFSLQLNSVTPEDTAVYYCARDDDWNDFDYWGQGTLVTVSS
VL: EIVLTQSPATLSLSPGERATLSCRASQSVSSYLAWYQQKPGQAPRLLIYDASNRATGIPARFSGSGSGTDFTLTISSLEPEDFAVYYCQQRSNWPLTFGGGTKVEIKR
notes: monomeric Fab made by GingisKHAN digestion of the IgG1
Kd [1]: 30 nM
koff [1]: 0.002 s⁻¹
kon [1]: 66000 M⁻¹ s⁻¹
KD mutant/KD wild type [2]: 0.6 fold
KD mutant/KD wild type [3]: 1.1 fold
binding result [4]: no binding (tested: 300 nM)
binding result [5]: no binding (tested: 300 nM)
binding result [6]: no binding (tested: 300 nM)
binding result [7]: no binding (tested: 300 nM)
KD mutant/KD wild type [8]: 10.6 fold

B4: Fab fragment of antibody 15572 (Fab, V domains shown, not shown: a dimerising Fc or GST)
VH: QLQLQESGPGLVKPSETLSLTCTVSGDSISSSSYYWGWIRQPPGKGLEWIGSIFYSGNTYYNPSLKSRVTISVDTSKNQFSLKLSSVTAADTAVYYCAREDDFLTDYYGAFDIWGQGTMVTVSS
VL: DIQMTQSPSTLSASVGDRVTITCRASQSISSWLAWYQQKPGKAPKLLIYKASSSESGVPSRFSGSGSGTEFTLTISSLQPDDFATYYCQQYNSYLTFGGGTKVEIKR
notes: as for B2
Kd [1]: 27 nM
koff [1]: 0.003 s⁻¹
kon [1]: 110000 M⁻¹ s⁻¹
binding result [2]: no binding (tested: 300 nM)
KD mutant/KD wild type [3]: 0.7 fold
binding result [4]: no binding (tested: 300 nM)
binding result [5]: no binding (tested: 300 nM)
binding result [6]: no binding (tested: 300 nM)
KD mutant/KD wild type [7]: 3.1 fold
binding result [8]: no binding (tested: 300 nM)

Continued, values first:

Kd [1]: 5.8 nM
koff [1]: 0.00065 s⁻¹
kon [1]: 110000 M⁻¹ s⁻¹
KD mutant/KD wild type [2]: 1.1 fold
KD mutant/KD wild type [3]: 1.1 fold
KD mutant/KD wild type [4]: 6.3 fold
KD mutant/KD wild type [5]: 3.9 fold
KD mutant/KD wild type [6]: 2.7 fold
KD mutant/KD wild type [7]: 6.5 fold
KD mutant/KD wild type [8]: 2.6 fold
B1: Fab fragment of antibody 15532 (Fab, V domains shown, not shown: a dimerising Fc or GST)
VH: QVQLQQWGAGLLRPSETLSLTCAVYGESFSGYYWNWIRQPPGKGLEWIGEINHSGSTNYNPSLKSRVTISVDTSKTQFSLKLSSVTAADTAVYYCARGWDLLDWNDYWNEYWGQGTLVTVSS
VL: B2 VL
notes: as for B2

Kd [1]: 4.3 nM
koff [1]: 0.00048 s⁻¹
kon [1]: 110000 M⁻¹ s⁻¹
KD mutant/KD wild type [2]: 0.7 fold
KD mutant/KD wild type [3]: 1.8 fold
KD mutant/KD wild type [4]: 7.2 fold
KD mutant/KD wild type [5]: 0.5 fold
KD mutant/KD wild type [6]: 0.5 fold
KD mutant/KD wild type [7]: 1.9 fold
KD mutant/KD wild type [8]: 1.9 fold
B3: Fab fragment of antibody 15011 (Fab, V domains shown, not shown: a dimerising Fc or GST)
VH: EVQLLESGGGLVQPGGSLRLSCAASGFDFRSYAMMWVRQAPGKGLEWVGGINGEVGGSNTYYAPAVKGRATISRDNSKNTLYLQMNSLRAEDTAVYYCVKGAGACGICNDDIDAWGQGTLVTVSS
VL: SYELTQDPAVSVALGQTVRITCSGAGSYAGSYYYGWHQQKPGQAPVTVIYDNDKRPSNIPDRFSGSSSGNTASLTITGAQAEDEADYYCGSTNDNDDGGLFGSGTKVTVLG
notes: as for B2
